The target of one assay is T1, EGFR on A431 cells (Homo sapiens, UniProt P00533).
T1 construct: A431 cells (American Type Culture Collection, cat. #CRL-1555) over-express EGFR; host or cells: A431
Briefly: A431 cell binding assay. To be noted: 1 hour room temperature. As for the experimental part:
To assess the ability of different FN3 domains to bind EGFR in a more physiological context, their ability to bind A431 cells was measured. A431 cells (American Type Culture Collection, cat. #CRL-1555) over-express EGFR with ˜2×10^6 receptors per cell. Cells were plated at 5,000/well in opaque black 96-well plates and allowed to attach overnight at 37° C., in a humidified 5% CO2 atmosphere. FN3 domain-expressing bacterial lysates were diluted 1,000-fold into FACS stain buffer (Becton Dickinson) and incubated for 1 hour at room temperature in triplicate plates. Lysates were removed and cells were washed 3 times with 150 μL/well of FACS stain buffer. Cells were incubated with 50 μL/well of anti-penta His-Alexa488 antibody conjugate (Qiagen) diluted 1:100 in FACS stain buffer for 20 minutes at room temperature. Cells were washed 3 times with 150 μL/well of FACS stain buffer, after which wells were filled with 100 μL of FACS stain buffer and read for fluorescence at 488 nm using an Acumen eX3 reader. […]
A431 cells were plated at 5,000/well in opaque black 96-well plates and allowed to attach overnight at 37° C., in a humidified 5% CO2 atmosphere. […] Cells were washed 3 times with 150 μL/well of FACS stain buffer, after which wells were filled with 100 μL of FACS stain buffer and read for fluorescence at 488 nm using an Acumen eX3 reader. […]

Assay [1] concerns the target T2, EGFR on A431 cells (EGF binding) (Homo sapiens, UniProt P00533).
T2 construct: A431 cells (American Type Culture Collection, cat. #CRL-1555) over-express EGFR; host or cells: A431
Briefly: A431 cell EGF competition assay. The conditions noted are these: biotinylated EGF 30 ng/mL. As for the experimental part:
To better characterize the mechanism of EGFR binding, the ability of various identified FN3 domain clones to bind EGFR in an EGF-competitive manner was measured using A431 cells and run in parallel with the A431 binding assay screen. A431 cells were plated at 5,000/well in opaque black 96-well plates and allowed to attach overnight at 37° C., in a humidified 5% CO2 atmosphere. Cells were incubated with 50 μL/well of 1:1,000 diluted bacterial lysate for 1 hour at room temperature in triplicate plates. Biotinylated EGF (Invitrogen, cat. #E-3477) was added to each well to give a final concentration of 30 ng/mL and incubated for 10 minutes at room temperature. Cells were washed 3 times with 150 μL/well of FACS stain buffer. […] Cells were washed 3 times with 150 μL/well of FACS stain buffer, after which wells were filled with 100 μL of FACS stain buffer and read for fluorescence at 600 nm using an Acumen eX3 reader.
A431 cells were plated at 5,000/well in opaque black 96-well plates and allowed to attach overnight at 37° C., in a humidified 5% CO2 atmosphere. […] Cells were washed 3 times with 150 μL/well of FACS stain buffer, after which wells were filled with 100 μL of FACS stain buffer and read for fluorescence at 600 nm using an Acumen eX3 reader. […]

B1: P54AR4-47: EGFR-binding FN3 domain, SEQ ID NO: 20 (protein)
chain: LPAPKNLVVSEVTEDSLRLSWGYNGDHFDSFLIQYQESEKVGEAINLTVPGSERSYDLTGLKPGTEYTVSIYGVHNVYKDTNMRGLPLSAEFTT
modifications: EGFR binding FN3 domain
For the molecule B1, the midpoint of the response with EGFR on A431 cells, the EC50, lay at 8.6 nM. The concentration for half-maximal inhibition (IC50) in assay [1] came to 7.1 nM.

The term EC50 denotes the concentration giving half of the maximal effect. A higher EC50 goes with weaker potency. A word on the IC50: it is the concentration that gives 50% inhibition. Read a high IC50 as weaker potency in that assay.

(Values after patent publication US11702475B2, “Cysteine engineered fibronectin type III domain binding molecules” (Janssen Biotech, Inc., priority 2013, dated 2023).)
